Data on 31 molecules can be found in PMC10786891, “Massively parallel profiling of RNA-targeting CRISPR-Cas13d”.

Changes are numbered by the printed parent chain. In names and notes the source's numbering stands.

The Kd is the concentration at which binding is half-saturated. Low values mean tighter binding, high ones weaker binding.

To fix the notation:
T1: EsCas13d, nuclease-dead (Eubacterium siraeum, UniProt B0MS50, R295A;H300A;R849A;H854A)
T1 sequence: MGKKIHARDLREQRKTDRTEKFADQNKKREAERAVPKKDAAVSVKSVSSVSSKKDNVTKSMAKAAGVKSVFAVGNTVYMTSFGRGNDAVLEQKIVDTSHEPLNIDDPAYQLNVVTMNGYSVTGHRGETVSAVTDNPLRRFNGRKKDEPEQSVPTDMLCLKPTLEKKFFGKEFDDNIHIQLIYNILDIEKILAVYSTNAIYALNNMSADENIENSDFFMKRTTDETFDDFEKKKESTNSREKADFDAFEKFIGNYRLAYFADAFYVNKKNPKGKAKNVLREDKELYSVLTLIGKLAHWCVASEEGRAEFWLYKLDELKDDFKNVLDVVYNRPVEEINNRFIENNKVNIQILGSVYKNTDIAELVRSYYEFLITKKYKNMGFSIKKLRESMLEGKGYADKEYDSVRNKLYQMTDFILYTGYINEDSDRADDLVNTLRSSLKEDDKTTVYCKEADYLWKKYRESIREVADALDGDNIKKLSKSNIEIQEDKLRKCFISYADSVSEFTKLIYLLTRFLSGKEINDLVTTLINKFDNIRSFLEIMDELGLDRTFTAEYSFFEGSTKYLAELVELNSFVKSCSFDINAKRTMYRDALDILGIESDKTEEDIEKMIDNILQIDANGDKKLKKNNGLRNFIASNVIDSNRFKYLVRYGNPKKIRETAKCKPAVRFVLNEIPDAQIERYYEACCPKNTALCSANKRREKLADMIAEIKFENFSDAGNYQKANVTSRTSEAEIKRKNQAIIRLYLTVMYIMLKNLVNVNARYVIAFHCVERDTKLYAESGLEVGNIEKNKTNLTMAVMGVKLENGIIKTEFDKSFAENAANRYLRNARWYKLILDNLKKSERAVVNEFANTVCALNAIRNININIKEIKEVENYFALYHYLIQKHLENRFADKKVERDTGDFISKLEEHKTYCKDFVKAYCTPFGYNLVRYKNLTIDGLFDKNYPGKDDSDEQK

B1: target 2 MT 5'PFS GCC 3'PFS AGC (mixed)
RNA 1: CACCCGUGCAAAAUUGCAGGGGUCUAAAACCUUCUCCAAAUUGUUUCAUCCU
RNA 2: GGGAAUGGAUCCACAUCUACGAAUUCGCCAGGAUGAAACAAUUUGGAGAAGAGCAGAUCGGAAGAGCACACGU
B2: target 2 MT 5'PFS CGC 3'PFS CAG (mixed)
RNA 1: B1 RNA 1
RNA 2: B1 RNA 2 with G27C, C28G, A52C, G53A, C54G
B3: target 2 MT 5'PFS CGC 3'PFS CAC (mixed)
RNA 1: B1 RNA 1
RNA 2: B1 RNA 2 with G27C, C28G, A52C, G53A
B4: target 2 MT 5'PFS UGA 3'PFS UCC (mixed)
RNA 1: B1 RNA 1
RNA 2: B1 RNA 2 with G27U, C28G, C29A, A52U, G53C
B5: target 2 MT 5'PFS AAC 3'PFS AUU (mixed)
RNA 1: B1 RNA 1
RNA 2: B1 RNA 2 with G27A, C28A, G53U, C54U
B6: target 2 MT 5'PFS GGU 3'PFS AUA (mixed)
RNA 1: B1 RNA 1
RNA 2: B1 RNA 2 with C28G, C29U, G53U, C54A
B7: target 2 MT 5'PFS GAU 3'PFS CAU (mixed)
RNA 1: B1 RNA 1
RNA 2: B1 RNA 2 with C28A, C29U, A52C, G53A, C54U
B8: target 2 MT 5'PFS CGC 3'PFS CAA (mixed)
RNA 1: B1 RNA 1
RNA 2: B1 RNA 2 with G27C, C28G, A52C, G53A, C54A
B9: target 2 MT 5'PFS UCG 3'PFS AGG (mixed)
RNA 1: B1 RNA 1
RNA 2: B1 RNA 2 with G27U, C29G, C54G
B10: target 2 MT 5'PFS CCC 3'PFS CCU (mixed)
RNA 1: B1 RNA 1
RNA 2: B1 RNA 2 with G27C, A52C, G53C, C54U
B11: target 2 MT 5'PFS GAU 3'PFS CAG (mixed)
RNA 1: B1 RNA 1
RNA 2: B1 RNA 2 with C28A, C29U, A52C, G53A, C54G
B12: target 2 MT 5'PFS GCC 3'PFS AGA (mixed)
RNA 1: B1 RNA 1
RNA 2: B1 RNA 2 with C54A
B13: target 2 MT 5'PFS GGU 3'PFS UCC (mixed)
RNA 1: B1 RNA 1
RNA 2: B1 RNA 2 with C28G, C29U, A52U, G53C
B14: target 2 MT 5'PFS GAU 3'PFS CAC (mixed)
RNA 1: B1 RNA 1
RNA 2: B1 RNA 2 with C28A, C29U, A52C, G53A
B15: target 2 MT 5'PFS GAU 3'PFS CAA (mixed)
RNA 1: B1 RNA 1
RNA 2: B1 RNA 2 with C28A, C29U, A52C, G53A, C54A
B16: target 2 MT 5'PFS CAG 3'PFS CUC (mixed)
RNA 1: B1 RNA 1
RNA 2: B1 RNA 2 with G27C, C28A, C29G, A52C, G53U
B17: target 2 MT 5'PFS UCG 3'PFS AGA (mixed)
RNA 1: B1 RNA 1
RNA 2: B1 RNA 2 with G27U, C29G, C54A
B18: target 2 MT 5'PFS AAC 3'PFS UUG (mixed)
RNA 1: B1 RNA 1
RNA 2: B1 RNA 2 with G27A, C28A, A52U, G53U, C54G
B19: target 2 MT 5'PFS GGU 3'PFS UCU (mixed)
RNA 1: B1 RNA 1
RNA 2: B1 RNA 2 with C28G, C29U, A52U, G53C, C54U
B20: target 2 MT 5'PFS GGU 3'PFS AUC (mixed)
RNA 1: B1 RNA 1
RNA 2: B1 RNA 2 with C28G, C29U, G53U
B21: target 2 MT 5'PFS CGC 3'PFS CAU (mixed)
RNA 1: B1 RNA 1
RNA 2: B1 RNA 2 with G27C, C28G, A52C, G53A, C54U
B22: target 2 MT 5'PFS CAG 3'PFS CUG (mixed)
RNA 1: B1 RNA 1
RNA 2: B1 RNA 2 with G27C, C28A, C29G, A52C, G53U, C54G
B23: target 2 MT 5'PFS AAC 3'PFS AUA (mixed)
RNA 1: B1 RNA 1
RNA 2: B1 RNA 2 with G27A, C28A, G53U, C54A
B24: target 2 MT 5'PFS UGA 3'PFS UCG (mixed)
RNA 1: B1 RNA 1
RNA 2: B1 RNA 2 with G27U, C28G, C29A, A52U, G53C, C54G
B25: target 2 MT 5'PFS UGA 3'PFS UCA (mixed)
RNA 1: B1 RNA 1
RNA 2: B1 RNA 2 with G27U, C28G, C29A, A52U, G53C, C54A
B26: target 2 MT 5'PFS GGU 3'PFS UCG (mixed)
RNA 1: B1 RNA 1
RNA 2: B1 RNA 2 with C28G, C29U, A52U, G53C, C54G
B27: target 2 MT 5'PFS AAC 3'PFS AUC (mixed)
RNA 1: B1 RNA 1
RNA 2: B1 RNA 2 with G27A, C28A, G53U
B28: target 1 A1G,G13A (mixed)
RNA 1: CACCCGUGCAAAAAUGCAGGGGUCUAAAACUGAGCGGAUAACCUCUCUAUGG
RNA 2: GGGAAUGGAUCCACAUCUACGAAUUCGUACCAUAGAGAAGUUAUCCGCUCGCCGAGAUCGGAAGAGCACACGU
B29: target 1 A18U,C22A (mixed)
RNA 1: B28 RNA 1
RNA 2: B28 RNA 2 with C30A, A34U, A39G, G51A
B30: target 1 A1C,G13A (mixed)
RNA 1: B28 RNA 1
RNA 2: B28 RNA 2 with G51C
B31: target 1 G13A (mixed)
RNA 1: B28 RNA 1
RNA 2: B28 RNA 2 with G51A

For the data set, the target named is T1, EsCas13d, nuclease-dead. Nature of the data set: crRNA (strand 1, pre-loaded); Mg2+; 40 mM Tris-HCl pH 7.5, 150 mM NaCl, 6 mM MgCl2, 1 mM DTT, 0.1% Tween-20, 0.2 mg/ml BSA; 25 C; 10 min per concentration, then washed. The conditions noted are these: tags: His6-TwinStrep-SUMO cleaved; N-terminal SNAP kept (SNAP-Surface 488); label: 3' end held by stalled T7 RNA polymerase.
Turning to B1, the Kd worked out at 10.5 ± 1.2 nM.

Molecule B2 had a Kd of 3.6 ± 0.6 nM.

On to B3, for which the Kd amounted to 5.1 ± 0.5 nM.

B4 registered a dissociation constant Kd of roughly 49 nM.

Regarding B5, the Kd was found to be 6.1 ± 1.8 nM.

In turn, B6 registered a dissociation constant (Kd) of 14.8 ± 2.7 nM.

Turning to B7, the Kd worked out at 9 ± 1.4 nM.

The molecule B8 yielded a Kd of 7.4 ± 2.5 nM.

Regarding B9, the Kd was 35 ± 9 nM.

Turning to B10, binding was put at a Kd of 7.6 ± 1.8 nM.

B11 gave a Kd of 8.7 ± 0.6 nM.

As for B12, the affinity, expressed as Kd, was 10.5 ± 1.8 nM.

For the molecule B13, the affinity, expressed as Kd, was 76 ± 19 nM.

B14 had a dissociation constant (Kd) of 11.3 ± 2.4 nM.

B15 displayed a dissociation constant Kd of 14 ± 5 nM.

On to B16, for which the Kd was 6.5 ± 1.3 nM.

In turn, B17 registered a dissociation constant (Kd) of 17.9 ± 2.3 nM.

Molecule B18 displayed a Kd of 8.5 ± 1.3 nM.

As for B19, binding was characterised by a dissociation constant (Kd) of 38 ± 7 nM.

Regarding B20, binding was characterised by a dissociation constant (Kd) of 20 ± 3 nM.

Take B21: the dissociation constant (Kd) came out at 4.5 ± 0.7 nM.

B22 yielded a dissociation constant (Kd) of 7.2 ± 1.3 nM.

Consider B23, for which the Kd was 6.1 ± 1.4 nM.

With B24, the affinity, expressed as Kd, was 13 ± 1.7 nM.

In the case of B25, the dissociation constant (Kd) stood at 14 ± 6 nM.

Take B26: the Kd is 29 ± 4 nM.

B27 displayed a Kd of 3.8 ± 0.9 nM.

Molecule B28 showed a Kd of 6.2 ± 0.8 nM.

In the case of B29, the affinity, expressed as Kd, was 58 ± 6 nM.

In turn, B30 had a Kd of 14.8 ± 2.5 nM.

The molecule B31 displayed a Kd of 4.9 ± 0.4 nM.
